Tests used:
PEP_2875823 = target: T1, PEP_2875823; test: peptide array of 15-mers of human tau probed with the antibody; label LIN.AA (double alanine)
T1 peptide: KDQGGYTMHAAQEGD

PEP_2875821 = target: T2, PEP_2875821; test: as above
T2 peptide: RKDQGGYTMAADQEG

PEP_2875827 = target: T3, PEP_2875827; test: as above
T3 peptide: QGGYTMHQDAAGDTD

PEP_2875817 = target: T4, PEP_2875817; test: as above
T4 peptide: GDRKDQGGYAAHQDQ

PEP_2875825 = target: T5, PEP_2875825; test: as above
T5 peptide: DQGGYTMHQAAEGDT

PEP_2875819 = target: T6, PEP_2875819; test: as above
T6 peptide: DRKDQGGYTAAQDQE

[1] = target: T7, recombinant human Tau-412 protein (human, UniProt P10636-7 1-412); test: SPR Biacore T200, Protein A capture, mean of the VH1/VK2 runs
T7 construct: Analyte of the SPR study; also called human tau (1N4R, 412 amino acids)
T7 sequence (P10636 other isoform, or with tags, fused parts or gaps limits assumed): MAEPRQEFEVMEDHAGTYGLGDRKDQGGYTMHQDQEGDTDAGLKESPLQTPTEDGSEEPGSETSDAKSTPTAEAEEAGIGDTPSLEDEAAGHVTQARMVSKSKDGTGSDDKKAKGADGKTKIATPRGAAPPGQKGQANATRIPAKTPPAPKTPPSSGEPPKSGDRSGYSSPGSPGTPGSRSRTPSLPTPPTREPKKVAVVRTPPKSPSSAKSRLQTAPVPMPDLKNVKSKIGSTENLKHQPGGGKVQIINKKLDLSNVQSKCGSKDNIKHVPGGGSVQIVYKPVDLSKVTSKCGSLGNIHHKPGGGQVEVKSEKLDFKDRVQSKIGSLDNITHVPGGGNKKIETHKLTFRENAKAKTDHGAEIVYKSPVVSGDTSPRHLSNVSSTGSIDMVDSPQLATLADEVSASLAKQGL
Experimental: Kinetic data was obtained at a flow rate of 40 μL/min to minimize any potential mass transfer effects. Two repeats of the blank (no antigen) and the 2.5 nM concentration of the analyte were programmed into the kinetic run in order to check the stability of both the surface and analyte over the kinetic cycles. For the initial kinetic runs, 2-fold dilutions of Tau-412 from 40 nM to 0.156 nM were run. For kinetic analysis and on subsequent runs, an analyte range of 20 nM to 0.625 nM was selected. This range covered multiple analyte concentrations both above and below the reported KD.
The association phase was monitored for 500 seconds to allow some of the higher concentrations of analyte to reach steady state. In order to observe a sufficient signal decrease (>10%) during the dissociation phase of the kinetic cycle, dissociation was measured for 1200 seconds. As discussed in Section 5, the Fcs were allowed to stabilize for 600 seconds after each regeneration step. The signal from the reference channel Fc1 was subtracted from that of Fc2, Fc3 and Fc4.
The kinetic parameters for the interaction of Tau-412 with the 7 mAbs as measured using the Protein A capture system on the Biacore T200 are shown in Table F-2. To correct for differences in the capture level of the antibody between each binding cycle, a local Rₘₐₓ parameter was used in the 1-to-1 binding model. Kinetic analysis was performed in three independent runs using fresh preparations of Tau-412 and antibody. Run 1 and runs 2+3 used different vials of the antigen Tau-412; therefore the reported errors associated with the mean response probably represent variation in preparation of the analyte and differences in assay set-up and run. From run 1 to runs 2+3, the amount of antibody injected was adjusted to try to get closer to the target 300 RU capture levels.

human tau = target: T8, human tau (human, UniProt P10636 2-60); test: competition ELISA on plate-coated human tau against biotinylated HJ8.5; IC50 normalised to chimeric HJ8.5; column C2N Run 1
T8 construct: also called soluble human tau; human tau protein
T8 sequence (P10636 2-60 limits assumed): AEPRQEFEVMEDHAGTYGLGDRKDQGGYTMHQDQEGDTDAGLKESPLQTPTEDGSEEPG

- Binding Signal (PEP_2875823): 2710
- Binding Signal (PEP_2875821): 2790
- Binding Signal (PEP_2875827): 636
- Binding Signal (PEP_2875817): 661
- Binding Signal (PEP_2875825): 2580
- Binding Signal (PEP_2875819): 2580
- Kd [1]: 2.06 nM
- koff [1]: 0.000621 s⁻¹
- kon [1]: 302000 M⁻¹ s⁻¹
- IC50 (Relative to Chimera) (human tau): 1.34 relative to Chimera
B1: VH1/VK2 humanized anti-tau antibody (C2N-8E12) (antibody, human IgG4 S228P, kappa, V domains shown)
VH: EVKVVESGGGLVQPGGSMKLSCVVSGFTFSNYWVNWVRQAPGKGLEWVAQIRLKSDNYATHYEESVKGRFTISRDDSKSSVYLQMNNLRAEDSGIYYCTNWEDYWGQGTTVTVSS
VL: DIVLTQSPDSLAVSLGERATISCRASQSVSTSRYSYIHWYQQKPGQPPKLLIKYASNLESGVPSRFSGSGSGTDFTLNIHPLEPEDFATYYCHHSWEIPLTFGQGTKLEIKR
notes: Humanized recombinant IgG4 with S241P hinge mutation, human kappa light chain; also called C2N-8EI2

From patent US20180371066A1 (C2N DIAGNOSTICS, published 2018)
